Experimental data from patent publication US20200369765A1.

What was measured:
Human Siglec-9 (human) [1] = target: Human Siglec-9 (human) (UniProt Q9Y336); assay: flow cytometry on fresh purified human NK cells (CD3-/CD56+), isotype control staining
Human Siglec-7 (human) = Human Siglec-7 (human) (UniProt Q9Y286); assay: as above
Human Siglec-9 (human) [2] = target: Human Siglec-9 (human) (UniProt Q9Y336); assay: flow cytometry titration on neuraminidase-treated moDCs, goat F(ab')2 anti-human IgG (Fc) PE; table under the right panel; the curve itself is flat
Human Siglec-9 (human) [3] = target: Human Siglec-9 (human) (UniProt Q9Y336); assay: flow cytometry titration on untreated monocyte-derived dendritic cells (moDCs), goat F(ab')2 anti-human IgG (Fc) PE; table under the left panel; the curve itself is flat

Sequence of Human Siglec-9 (human) (Q9Y336 18-463): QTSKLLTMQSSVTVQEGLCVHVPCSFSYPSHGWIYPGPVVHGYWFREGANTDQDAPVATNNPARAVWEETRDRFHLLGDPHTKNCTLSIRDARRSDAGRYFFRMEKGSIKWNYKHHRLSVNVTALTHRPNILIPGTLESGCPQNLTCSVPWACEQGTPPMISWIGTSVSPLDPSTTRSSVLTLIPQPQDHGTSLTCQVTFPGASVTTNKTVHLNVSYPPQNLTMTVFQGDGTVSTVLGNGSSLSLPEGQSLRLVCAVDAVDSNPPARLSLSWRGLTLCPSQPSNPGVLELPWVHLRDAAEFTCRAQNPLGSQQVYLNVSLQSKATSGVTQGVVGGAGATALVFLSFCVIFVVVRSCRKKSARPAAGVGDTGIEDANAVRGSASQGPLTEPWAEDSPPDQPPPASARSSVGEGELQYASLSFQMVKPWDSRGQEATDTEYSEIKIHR
Sequence of Human Siglec-7 (human) (Q9Y286 19-467): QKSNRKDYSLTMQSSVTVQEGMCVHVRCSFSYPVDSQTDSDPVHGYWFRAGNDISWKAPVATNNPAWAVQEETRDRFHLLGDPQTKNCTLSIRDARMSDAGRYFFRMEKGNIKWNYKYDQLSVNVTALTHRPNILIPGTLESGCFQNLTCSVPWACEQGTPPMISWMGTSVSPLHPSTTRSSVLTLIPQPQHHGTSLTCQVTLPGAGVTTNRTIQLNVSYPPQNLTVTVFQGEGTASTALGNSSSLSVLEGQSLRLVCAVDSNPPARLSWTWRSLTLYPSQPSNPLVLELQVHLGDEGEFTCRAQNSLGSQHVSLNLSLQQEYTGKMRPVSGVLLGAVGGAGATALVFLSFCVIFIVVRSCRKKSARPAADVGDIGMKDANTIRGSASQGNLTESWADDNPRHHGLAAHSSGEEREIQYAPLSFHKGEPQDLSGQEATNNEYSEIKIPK

## Isotype control - PE (antibody)
Human Siglec-9 (human) [1]
  percent of NK cells in quadrant Q2 (APC positive, PE positive): 0.34%
  percent of NK cells in quadrant Q3 (PE positive, APC negative): 2.54%

## Isotype control - APC (antibody)
Human Siglec-7 (human)
  percent of NK cells in quadrant Q1 (APC positive, PE negative): 0.975%
  percent of NK cells in quadrant Q2 (APC positive, PE positive): 0.34%

## Isotype control (antibody)
Human Siglec-9 (human) [2]
  EC50: 1.22 µg/mL
Human Siglec-9 (human) [3]
  EC50: 2.24 µg/mL
